# Assay results: the DeepSol protein solubility set
# Assay: soluble on expression in E. coli; label from the status in PepcDB or PDB records
row,Sequence,soluble on expression in E. coli
1,MGSDKIHHHHHHMSKAKELTPEQFRKMQLTELDMLVEFDKVCRKHNINYVLFGGSLLGAVRHKGYIPWDDDADIGMLREDYDTFKKYASEMNSEICYFQDHDTDPEYRWGYGKLRRTNTIYVRVGQEHLKNKTGIFVDVFPMDDVPLSTLGQIVQDRKVYCLRKILWSEVARVQSTGFMKLWYSVLAKIPVEWVFSRLNKYAVKSKNITPNRVRCLSFPATGTLYKKNSLKTRYSMPKSWFTNRAEYLFEGRLLYSSKEYDEVLKYIYGKYMELPPKDKREQHSPFSKIKFQDEEMIV,not soluble
2,MSLEVIKHDGPGRLGVIRLEPPVQTPALAGVDFTLSPFNSFFYPKDYKEYDFNLAPAIPLSYYTPDEIIKKAVKRLWEVDYSKFNAFYFPALKRTKHYEELFKIIEENDFDAIYIGNSKSMIKDYRGFVFTMRELREKFPNAVLITDLEPFFYPLAVYLGIDAFDIRSLKIYSYEGLGFTQFSPIIWDEPKEDPVEYAKKIIRLIRIAIHEGKLRYLVENFLPTSMNAGILRIADRENIEYLEKYTPVDDKTVVFISDYSMTRPEVYRWAKRVRERFEPPKDIELLLILPCSAKKPYSRSRSHTLYRSAVKEALGEKMHRVHELIVTSPYGVVPREWEWIAKYDIVVTGHWSEREVRLAGELLADVLEKYPDIPIIAHVEGGYREAVKLAMELSGRDVIFTAKGNSTTSRESLANLTKTLKEFDVREGHHHHHH,not soluble
3,MTGTGILARPERNHYFSLALAFCSWVRNGYGVFRYSDKELLFLASINGQPAVMADLSGNDADVAQKVSLFLTMNEEPPEKWQVVSPLEHPDNWESIITRLSSADLRRCKLTVGNRSKFTLPAVLFLVAASAGTVFWMTQPEPDVVPTPEEIAARARLQFKKPDPPPELPHPWASQPVISDFLKACADLRKPSPVALEGWKLTGGTCTPETFTLIYERQPGGTIEGFLARSKEIFNVIPDFNLKDGARLASVTRPLPSLPRRDEAVPTPSEQLMRVFTWFQKKQLTPAINEIAIPEPLPGNDGEPAPVQKWKEYQFSLSTPVNPDELFPLFQDTGVRLSNIHFELNGGTFSYSSEGHIYASRLEHHHHHH,not soluble
4,MSEDYADLHDPNAEYTMRELSAETMGADSGRPAPRDLEITDIQTTMVDGNFPWTLVRVYTDAGVVGTGEAYWGAGVPELIERMTPFVVGENPLDIDRLFEHLVQKMSGEGSVEGVTVTAISGIEVALHDLAGKVLGVPAYQLLGGKYRDEVRVYCDCHTAAEADPEACADEAERVVDDLGYDALKFDLDVPSGLEKDRANRHLRPGEIRHKADIVAAVTERVRDRADVAFDCHWTFSGGSAKRLAAELEAYDVWWLEDPVPPENLDVQASVTESTATPIAVGENRYRVTEARRLIENQAVDIVAPDLPKVGGMRETRKIADVANQYYVPVAMHNVASPVATMASAHVGAAIPNALAVEYHSYELGWWSDLVAEDVIEDGSIEVPERPGLGITLDMDAVEEHMVDGETLFDEA,soluble
5,MTSKTNMTSNKFAYDFFPWSNDTNSSQQIKNIKPPPKRSNRPTKRTTFTSEQVTLLELEFAKNEYICKDRRGELAQTIELTECQVKTWFQNRRTKKRSSELKFGTACSENKTSTKWYYDSKLLFCYPYKYLGCGEGSNSFESNENCLESCKPADQFSCGGNTGPDGVCFAHGDQGCKKGTVCVMGGMVGFCCDKKIQDEWNKENSPKCLKGQVVQFKQWFGMTPLIGRSCSHNFCPEKSTCVQGKWTAYCCQ,soluble
6,MDTTTTSSLKSAEKKDTDATPRAHSPEIDVEVIKSDCSTPEKQNGAVGNEQQMNNSTSTRRTDSNKNLSPPPQRLRTSSSTSDGTENLISSLSSWDWVTIDGLKLPAVTRNKERYVAVHMVQLKLLSKFPSDIPRDITRKFTMGSHKMTVTEAWTFNTINAVIRKFDLGCQLFTANDELVKLNDVQMFYWNVKLFNLKRVNGQYETAISSAENNVQLLATAMQLKKQVDSDIQVIFK,not soluble
7,MSLNPKILEKWMAEGQVTLPQVLVKNYATIGLNEVELVLLLQIQSFAAEAEFFPSMEMLTNRTTLPLEETIKTMDSLLKKGVIAIEQSQDNSRMISEQYNLAPLWGKLVALYENKEADSKHEKELEKQTSLYTLFEAEFGRPLSPMEAEMLSAWVEQDRTSPDLIKEALKEAVISQKLNFRYIDRILLNWSKQGVKTIEDAKRVAEEFHQNGRTSQAINQTEVKKSAGSIPLYDWLEKRKGEGHHHHHH,soluble
8,MFTQVKPYLSLPGFSCVLVNAGIVPPDLNQNFRVAFFNEKKSLNFYVLEKLFLNAEVKLLKPQKETEETFDFIISEIPFSHAFEEERKGLSNSIRNSLKEKGVLFIEYDSKPGSTPKEEFIRFIRLFLKKVESEQVKTDLEVILSRPSYFWARNNETRLYFLEKARRFNDDFVKREITNENYRIFSHDEVHELLKDCMLSFAGRANLEMNDPEIVLFPSHLATLARCGKNNLCKEAVIDFVLDTKQRRDIYAKFPEVDQEKAIESVADKFFLIPRQSPKNLRREVLLPGGHKLSLSEPVYDFFFVNSEEPRRLSEHPLYEKSKKTAWKAFYRVLSTGEFILCVNDDLLEDAKDELPESFELTPPNDEILKVSFENLEDTYLVSNATKGPAVHLNTLEVILLWFASEKGKTKAKEEAVKFLKSREEFIKLGTNIVKAREVKEEDINKTAEKLFKGRKAFNLNRLKIIRER,not soluble
9,MSLETSDAPHSSLVGNSVFVTHPDLKRLFQMAVSKSVREILIPAVEKAANMAVQSTVNIVLKDFATEVDEQKLKTAAINMVQYLAQNVAHSISVPLLKDTIRNTTQSLTPNLINMTNSPIAELNTAIDDNIAIAVSPIEKAAVERAIQEVNEKLVQAVAVRRYHLERRSDQPFVAQNINRFSLNLPDPLGLKPTGVTREQFSLYEQFPASMPSDSSRSPLETILAQEGHHHHHH,soluble
10,MGSDKIHHHHHHMVIELKNEKVTVQFKEFGGALSSIKDQDGIEYLWQGNPAYWSSQAPVLFPICGSLRNDKGIYTSKKHSHRYGSIPRHGLVRKKNFRFEQLGKDSVVFTITPDKEMLMQYPYHFELKIIYTLKHTTIRTEYQVINKEKESIMPYFIGGHPGLNCPLFAGDRYEDYYLEFEKEETCTVPKSFPDTGLLDLQDRKIFLKGQKYLDLDYSLFTHDAITLDNLQSRSVSLRSKNHGGGLRLDFADFPYLILWSTANKSPFIALEPWSGLSTAVDESDYFEEKRNVSFVEPGQFDRNYFDITVL,not soluble
11,MEEFTWRVGGPQGGGIETAATLFARAVGKGGWWVATKREYHSNIMGRHSYLDVRLARKPVQAFRERVDFLVALDGETLARHLGEVREGGVVLYDPKVLELTLHKLPMLDHRVAEDLAKRLGQADPSLKEVLQAYAEAGVQPLPYPFEAVADRIGEALGVPSLKARRTLNTIAVAASLHLLSYPLEPLLQALALQFRGEVLELNRKVAEAVYREEAPRLPFRLEVLGPAPGRIYLTGAQAAALGKLAGGLRFQTYYPISPATDESVFLEAHTHLPGADVAVVQTEDEIAAVNMAVGAALAGAKAATATSGPGFSLMAEGLGFAGMIEAPLVVTLYQRGGPSTGLPTRTEQGDLMFAIRGGHGEYPRLVLASGDILDAFLDAQKALAWAWRYQTVVVHLLDKFLASLAQSLPKEALKVLSLDGEKRLSPREGFGPYQRYAPGEDGLSPFIPIGTPGGFYWMTSDEHDPLGHITEDVELRELQMEKRMEKLELARKEIPLEDQYTLFRDGEVLVLGWGTVKGTLLEALDHLEGVGYLHLRLLWPFPRIAPLLEGKTLVTVEHNYSGQLADLVQQETLKRVHHRVVKYNGRPITLEEAVEALKAVREGRAPERLVLRKGV,soluble
12,QGHMPSDSKKPTIIYPCLWDYRVIMTTKDTSTLKELLETYQRPFKLEFKNTSKNAKFYSFNVSMEVSNESERNEIFQKISQLDKVVQTLGS,soluble
13,MSLLKVRLCPAERPEAMLIDAHQHFWLMKDRAGQWPPPSLAAIYRDFLPTDLSPLLTAAGVSGTVLVQTMETAADTDFMLELAENTDFIKGVVGWVDMKSAEVTAEIARRAKHPAFKGVRPMLQGMEDVAWIDDAALNAAVEALVKHGLVFDALVLPPNLPHLLSFASKHPELPVVIDHGAKPLIATGHYRDWRRNMAALAARPNVHCKLSGLLTERGEQRPEAVRPYAETILELFGGDRVIFGSDWPVLRLAGDFQGWLDFCRDIVPAKDHAAVFGGNAIRFYSLTDREGHHHHHH,not soluble
14,MGSDKIHHHHHHMSSQNALYMLIDERLRRDELKLPGLPETAEQVRNAAMDPDCNLHDLCHIIQQDTALTARLIRLANSAYLGGRNKAESLMQALTRIGMRRIRTLALAMAMEQVFKPDNDIVQMFSQQFIVESREIAAAAVVITEDLQHRGIGHRLHQDVALLAGMVSRIGVAPILHMANEFEDSFANPSFIKECITQFSSTLGSNILSYWQFTPNLVQVPLCYYNGRMTLNDAITVNYCDIVHLAGLLTGNVKPNKDSVTLVEYQMLGVIKTDDFWQQESVQKSYRQMLDLLS,not soluble
15,MGSDKIHHHHHHMDLASRLLLLLEVSELGSFVKVSELRNVNRSAISKQIGKLEKELGVHLLNRTTRSLSLTAAGSEMVNQAKQLRDLLNNSKRLAENYHSEPRGELKISSSTLFGRQYVQQAVLKFQAQYPDIRIELLLEDRIVDLVGEGFDIGFRIGEPKESNLIAKQIAQNRLLIVAAPSFIEKHGKPTTIPKLESLPAVVYSAQGLLIDKIKYLDNTGNEAFIQLNTAYKVNEVEMLINTAVAGEMLTVTTAQMIENEVLEGKLIPIMTHINLADYGTFYAVYPHRNSPLKTKLFIETLKEVVGDKRPIWETRIPGFDKMYNNKT,not soluble
16,MHHHHHHSSGVDLGTENLYFQSMMASQNSFRIEYDTFGELKVPNDKYYGAQTVRSTMNFKIGGVTERMPTPVIKAFGILKRAAAEVNQDYGLDPKIANAIMKAADEVAEGKLNDHFPLVVWQTGSGTQTNMNVNEVISNRAIEMLGGELGSKIPVHPNDHVNKSQSSNDTFPTAMHIAAAIEVHEVLLPGLQKLHDALDAKSKEFAQIIKIGRTHTQDAVPLTLGQEFSGYVQQVKYAMTRIKAAMPRIYELAAGGTAVGTGLNTRIGFAEKVAAKVAALTGLPFVTAPNKFEALAAHDALVELSGAMNTTACSLMKIANDIRFLGSGPRSGLGELILPENEPGSSIMPGKVNPTQCEAMTMVAAQVMGNHVAVTVGGSNGHFELNVFKPMMIKNVLHSARLLGDASVSFTENCVVGIQANTERINKLMNESLMLVTALNPHIGYDKAAKIAKTAHKNGSTLKETAIELGYLTAEQFDEWVKPKDMLGPK,soluble
17,MAQRVQLTATVSENQLGQRLDQALAEMFPDYSRSRIKEWILDQRVLVNGKVCDKPKEKVLGGEQVAINAEIEEEARFEPQDIPLDIVYEDEDIIIINKPRDLVVHPGAGNPDGTVLNALLHYYPPIADVPRAGIVHRLDKDTTGLMVVAKTVPAQTRLVESLQRREITREYEAVAIGHMTAGGTVDEPISRHPTKRTHMAVHPMGKPAVTHYRIMEHFRVHTRLRLRLETGRTHQIRVHMAHITHPLVGDPVYGGRPRPPKGASEAFISTLRKFDRQALHATMLRLYHPISGIEMEWHAPIPQDMVELIEVMRADFEEHKDEVDWL,soluble
18,MSLKKMSIKVPGKLFFAGEYSVTKEGNLALITTIETNFEVRISATTGKSIFKTNVGLSDFEFSLSKIEFTKENPWNFALTALKNTLSAADSFEKKSVSKILSSSPEISLEIVSDLGFGENKKGYGSSASVVCGLVNAVNQFFDFQLSLEKRFEIAAKTHFEVQGSGSMGDIAAIMYGGSVFYQNHKRVIPLEIPWATYVVQTGKAAKTSEKIKIKLSDEFYQASNELVIELATAIDIQDFALFKEKLSENQLLLLENIPEGYMTKELAIALNLLNSYPEFAAKISGAGFGENIILFAQNTQAIAEVQNKLSEYGINLEKFKVAQKNNEGHHHHHH,soluble
19,MIHGIGVDLIEIDRIQALYSKQPKLVERILTKNEQHKFNNFTHEQRKIEFLAGRFATKEAFSKALGTGLGKHVAFNDIDCYNDELGKPKIDYEGFIVHVSISHTEHYAMSQVVLEKSAF,not soluble
